Reference: article PMC11721587, “Morphogen-induced kinase condensates transduce Hh signal by allosterically activating Gli” (Science Advances, 2025)

B1: Flag-Fu^EE (enzyme)
chain: MNRYAVSSLVGQGSFGCVYKATRKDDSKVVAIKVISKRGRATKELKNLRRECDIQARLKHPHVIEMIESFESKTDLFVVTEFALMDLHRYLSYNGAMGEEPARRVTGHLVSALYYLHSNRILHRDLKPQNVLLDKNMHAKLCDFGLARNMELGEHVLTSIKGTPLYMAPELLAEQPYDHHADMWSLGCIAYESMAGQPPFCASSILHLVKMIKHEDVKWPSTLTSECRSFLQGLLEKDPGLRISWTQLLCHPFVEGRIFIAETQAEAAKESPFTNPEAKVKSSKQSDPEVGDLDEALAALDFGESRQENLTTSRDSINAIAPSDVEHLETDVEDNMQRVVVPFADLSYRDLSGVRAMPMVHQPVINSHTCFVSGNSNMILNHMNDNFDFQASLRGGGVAAKPIVAPTVRQSRSKDLEKRKLSQNLDNFSVRLGHSVDHEAQRKATEIATQEKHNQENKPPAEAISYANSQPPQQQPQQLKHSMHSTNEEKLSSDNTPPCLLPGWDSCDESQSPPIENDEWLAFLNRSVQELLDGELDSLKQHNLVSIIVAPLRNSKAIPRVLKSVAQLLSLPFVLVDPVLIVDLELIRNVYVDVKLVPNLMYACKLLLSHKQLSDSAASAPLTTGSLSRTLRSIPELTVEELETACSLYELVCHLVHLQQQFLTQFCDAVAILAASDLFLNFLTHDFRQSDSDAASVRLAGCMLALMGCVLRELPENAELVERIVFNPRLNFVSLLQSRHHLLRQRSCQLLRLLARFSLRGVQRIWNGELRFALQQLSEHHSYPALRGEAAQTLDEISHFTFFVT
modifications: SUMOylated in Sf9 cells (condensate fraction)
B2: fused (Fu) (enzyme, Drosophila (endogenous in Cl8), UniProt P23647 1-805, looked up)
chain: MNRYAVSSLVGQGSFGCVYKATRKDDSKVVAIKVISKRGRATKELKNLRRECDIQARLKHPHVIEMIESFESKTDLFVVTEFALMDLHRYLSYNGAMGEEPARRVTGHLVSALYYLHSNRILHRDLKPQNVLLDKNMHAKLCDFGLARNMTLGTHVLTSIKGTPLYMAPELLAEQPYDHHADMWSLGCIAYESMAGQPPFCASSILHLVKMIKHEDVKWPSTLTSECRSFLQGLLEKDPGLRISWTQLLCHPFVEGRIFIAETQAEAAKESPFTNPEAKVKSSKQSDPEVGDLDEALAALDFGESRQENLTTSRDSINAIAPSDVEHLETDVEDNMQRVVVPFADLSYRDLSGVRAMPMVHQPVINSHTCFVSGNSNMILNHMNDNFDFQASLRGGGVAAKPIVAPTVRQSRSKDLEKRKLSQNLDNFSVRLGHSVDHEAQRKATEIATQEKHNQENKPPAEAISYANSQPPQQQPQQLKHSMHSTNEEKLSSDNTPPCLLPGWDSCDESQSPPIENDEWLAFLNRSVQELLDGELDSLKQHNLVSIIVAPLRNSKAIPRVLKSVAQLLSLPFVLVDPVLIVDLELIRNVYVDVKLVPNLMYACKLLLSHKQLSDSAASAPLTTGSLSRTLRSIPELTVEELETACSLYELVCHLVHLQQQFLTQFCDAVAILAASDLFLNFLTHDFRQSDSDAASVRLAGCMLALMGCVLRELPENAELVERIVFNPRLNFVSLLQSRHHLLRQRSCQLLRLLARFSLRGVQRIWNGELRFALQQLSEHHSYPALRGEAAQTLDEISHFTFFVT
notes: Fu Ser/Thr kinase, Drosophila, endogenous in Cl8 cells; After Hh it is phosphorylated (T158/S159, S482) and SUMO-conjugated; the SDS-resistant dimer is called mature Fu; also called endogenous Fu; mature Fu; source: endogenous, Cl8 cells (fractions, lysates)
B3: Ulk3-HA^WT (in HEK293T) (enzyme, mouse, UniProt Q3U3Q1 1-472, looked up)
chain: MAGPSWGLPRLDGFILTERLGSGTYATVYKAYAKKDTREVVAIKCVAKKSLNKASVENLLTEIEILKGIRHPHIVQLKDFQWDNDNIYLIMEFCAGGDLSRFIHTRRILPEKVARVFMQQLASALQFLHERNISHLDLKPQNILLSSLEKPHLKLADFGFAQHMSPWDEKHVLRGSPLYMAPEMVCRRQYDARVDLWSVGVILYEALFGQPPFASRSFSELEEKIRSNRVIELPLRPQLSLDCRDLLQRLLERDPARRISFKDFFAHPWVDLEHMPSGESLAQARALVVEAVKKDQEGDAAAALSLYCKALDFFVPALHYEVDAQRKEAIKAKVGQYVSRAEELKAIVSSSNQALLRQGTTVQELLREMARDKPRLLAALEVASAALAKEEEAGKEQDALDLYQHSLGELLVLLAAEAPGRRRELLHTEVQNLMARAEYLKEQIKIRESHWEAESLDKEGLSESVRSSCTLQ
modifications: SUMO-conjugated form enriched in the condensates (P100)
notes: source: HEK293T, transfected, overexpressed; in lysate fractions (S100, P100); purified from HEK293T for in vitro maturation; not shown: 3x HA, C-terminal, kept

Key:
[1] = target: the molecule itself; experiment: SDS-PAGE and immunoblot (SDS-resistant dimer); SDS-resistant ~250 Kd Fu dimer ('mature Fu') in extracts of cells (Cl8 with Hh-conditioned medium, S2, Sf9, wing discs); tells nothing of SDS-labile association
[2] = target: the molecule itself; experiment: co-sedimentation; sedimentation assay of HEK293T cells overexpressing Ulk3-HA constructs; S100 soluble, P100 condensates

Protein | stoichiometry N [1] | binding result [2]
B1 | 2 | –
B2 | 2 | –
B3 | – | binds
